Experimental data taken from article PMC8402611, “Generation and Characterization of a Spike Glycoprotein Domain A-Specific Neutralizing Single-Chain Variable Fragment against Porcine Epidemic Diarrhea Virus” (Vaccines, 2021).

What was measured:
[1] = target: T1, S protein of PEDV-CV777 (G1 PEDV) (Porcine epidemic diarrhea virus, CV777 …, UniProt H2DFZ6); test: immunostaining of cells or tissue; ICC (HRP/DAB) and IFA (FITC) on PEDV-infected Vero cells fixed with 80% acetone; scFv 5 ug/mL in PBS for 1 h, detected by anti-V5 antibody; PBS blank as background control; conditions: one partner purified
T1 construct: spike (S) protein of porcine epidemic diarrhea virus strain CV777; stood on infected cells and on purified virions; The antigen in the assays was the infected cell or the whole virion; also called G1 PEDV S protein; historic vaccine strain; source: PEDV-CV777 in infected Vero cells (acetone-fixed); purified PEDV-CV777 virions
T1 sequence (Q91AV1 26-1383): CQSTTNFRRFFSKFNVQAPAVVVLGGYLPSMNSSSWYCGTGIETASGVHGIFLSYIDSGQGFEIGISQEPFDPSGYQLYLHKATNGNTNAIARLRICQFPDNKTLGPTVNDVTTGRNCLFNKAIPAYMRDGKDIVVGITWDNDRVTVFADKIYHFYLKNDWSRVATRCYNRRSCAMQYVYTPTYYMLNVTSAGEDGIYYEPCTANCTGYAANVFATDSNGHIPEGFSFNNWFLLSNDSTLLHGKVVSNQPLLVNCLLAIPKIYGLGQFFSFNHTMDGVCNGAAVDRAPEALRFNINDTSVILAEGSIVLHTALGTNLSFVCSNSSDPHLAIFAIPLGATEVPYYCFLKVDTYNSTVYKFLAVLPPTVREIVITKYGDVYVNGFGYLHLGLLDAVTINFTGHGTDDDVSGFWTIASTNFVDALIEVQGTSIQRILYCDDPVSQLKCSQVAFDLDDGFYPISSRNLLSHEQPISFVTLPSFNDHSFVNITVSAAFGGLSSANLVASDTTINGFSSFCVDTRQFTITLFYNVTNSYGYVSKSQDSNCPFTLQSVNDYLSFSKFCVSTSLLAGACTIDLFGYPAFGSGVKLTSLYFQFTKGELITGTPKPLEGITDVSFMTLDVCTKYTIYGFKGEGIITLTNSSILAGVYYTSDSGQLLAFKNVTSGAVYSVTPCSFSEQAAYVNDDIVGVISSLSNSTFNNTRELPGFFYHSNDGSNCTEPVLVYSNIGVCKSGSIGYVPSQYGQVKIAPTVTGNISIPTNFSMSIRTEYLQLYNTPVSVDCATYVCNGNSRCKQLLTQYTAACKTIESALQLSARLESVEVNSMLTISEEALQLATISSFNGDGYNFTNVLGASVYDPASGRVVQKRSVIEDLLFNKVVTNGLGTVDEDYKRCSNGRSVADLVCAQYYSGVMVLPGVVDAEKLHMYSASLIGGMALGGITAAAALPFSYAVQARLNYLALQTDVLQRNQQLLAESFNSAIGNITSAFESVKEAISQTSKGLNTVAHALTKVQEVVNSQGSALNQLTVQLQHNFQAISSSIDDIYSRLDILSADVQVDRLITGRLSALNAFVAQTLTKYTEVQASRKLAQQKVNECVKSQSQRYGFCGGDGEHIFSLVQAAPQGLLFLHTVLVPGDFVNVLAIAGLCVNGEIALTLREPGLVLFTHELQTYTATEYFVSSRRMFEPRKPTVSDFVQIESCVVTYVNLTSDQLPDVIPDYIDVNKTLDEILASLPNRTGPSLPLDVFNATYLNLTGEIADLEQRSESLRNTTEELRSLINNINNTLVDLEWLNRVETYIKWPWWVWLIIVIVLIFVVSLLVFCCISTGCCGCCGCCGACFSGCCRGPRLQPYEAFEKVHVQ

[2] = target: T2, ectodomain of the S protein of PEDV (GeneBank no. HC070225-S) (Porcine epidemic diarrhea virus, …, UniProt A0A1Y0DDF5); test: retention on a 100 kDa MWCO spin column (called immunoprecipitation pull-down assay); 25 pmol S protein with 125 pmol scFv, 37 C for 3 h; 100 kDa MWCO filtration, 10 washes with dPBS; SDS-PAGE with Coomassie; control of scFv alone; conditions: both partners purified
T2 construct: spike (S) glycoprotein of porcine epidemic diarrhea virus, ectodomain; also called PEDV S protein; purified trimeric PEDV S glycoprotein; source: Expi293F cells, secreted, purified from the culture medium

B1: recombinant scFv of the PEDV S1^A-specific neutralizing monoclonal antibody E10E-1-10 (scFv, V domains shown)
VH: QVQLQQSGAELARPGTSVKMSCKASGYTFTNYMMHWIKQRPGQGLEWIGYINPSTGYTNYNQKFKDKATLTADKSSSTAYVQLNILTSEDSAVYYCATSTLITGDYWGQGTTLTVSS
VL: NIVLTQSPKSMSMSVGERVTLSCKASENVGTYVSWYQQKPKQSPKLLIYGTFNRYTGVPDRFTGSGSATDFTLTISSVQAEDLADYHCGQSYNYPFTFGSGTKLEIK
notes: (G4S)3 linker; About 30 kDa; The order VL, linker, VH follows the order in which the methods name the regions; also called E10E-1-10 scFv; anti-PEDV S1^A scFv; source: Expi293F cells, transfected, secreted; purified from the supernatant (IMAC on cobalt resin, SEC on Superdex 75 Increase)
B1: binds [1]; binds [2].
